Experimental data taken from patent US12246067 (BIONTECH US, dated 2025).

Key:
HLA-A03.01 = biological target: T1, HLA-A03.01 (human); experiment: peptide-HLA class I complex stability, method not described
T1 construct: The assay format and the HLA construct are not described

HLA-A11.01 = biological target: T2, HLA-A11.01 (human); experiment: as above
T2 construct: The assay format and the HLA construct are not described

HLA-A02:01 [1] = biological target: T3, HLA-A02:01 (human); experiment: measured peptide-HLA affinity; method not detailed
T3 construct: only the allele is given; also called HLA-A02:01 allele protein

HLA-A02:01 [2] = biological target: T3, HLA-A02:01; experiment: measured peptide-HLA complex stability; method not detailed

## VVGACGVGK [KRAS, G12C peptide VVGACGVGK]
HLA-A03.01
  Measured stability: 5 h
HLA-A11.01
  Measured stability: 10 h

## VVGADGVGK [KRAS, G12D peptide VVGADGVGK]
HLA-A11.01
  Measured stability: 3.4 h

## VVVGADGVGK [KRAS, G12D peptide VVVGADGVGK]
HLA-A03.01
  Measured stability: 2.3 h
HLA-A11.01
  Measured stability: 13 h

## VVVGAVGVGK [KRAS, G12V peptide VVVGAVGVGK]
HLA-A03.01
  Measured stability: 6.7 h
HLA-A11.01
  Measured stability: 24.3 h

## FLVVVGACGV [KRAS G12C affinity-enhanced peptide FLVVVGACGV]
HLA-A02:01 [1]
  Measured Affinity: 4.2 nM
HLA-A02:01 [2]
  Measured stability: 7.4 h

## FLVVVGACGI [KRAS G12C affinity-enhanced peptide FLVVVGACGI]
HLA-A02:01 [1]
  Measured Affinity: 27.8 nM
HLA-A02:01 [2]
  Measured stability: 1.4 h

## FLVVVGACGL [KRAS G12C affinity-enhanced peptide FLVVVGACGL]
HLA-A02:01 [1]
  Measured Affinity: 69.4 nM
HLA-A02:01 [2]
  Measured stability: 1.4 h

## FMVVVGACGI [KRAS G12C affinity-enhanced peptide FMVVVGACGI]
HLA-A02:01 [1]
  Measured Affinity: 17 nM
HLA-A02:01 [2]
  Measured stability: 1 h

## FMVVVGACGL [KRAS G12C affinity-enhanced peptide FMVVVGACGL]
HLA-A02:01 [1]
  Measured Affinity: 85.3 nM
HLA-A02:01 [2]
  Measured stability: 0.9 h

## FMVVVGACGV [KRAS G12C affinity-enhanced peptide FMVVVGACGV]
HLA-A02:01 [1]
  Measured Affinity: 1.1 nM
HLA-A02:01 [2]
  Measured stability: 5.4 h

## KMVVVGACGV [KRAS G12C affinity-enhanced peptide KMVVVGACGV]
HLA-A02:01 [1]
  Measured Affinity: 11.9 nM
HLA-A02:01 [2]
  Measured stability: 3.8 h

## MLVVVGACGV [KRAS G12C affinity-enhanced peptide MLVVVGACGV]
HLA-A02:01 [1]
  Measured Affinity: 18.2 nM
HLA-A02:01 [2]
  Measured stability: 1.7 h

## MMVVVGACGV [KRAS G12C affinity-enhanced peptide MMVVVGACGV]
HLA-A02:01 [1]
  Measured Affinity: 18.9 nM
HLA-A02:01 [2]
  Measured stability: 2.1 h

## YLVVVGACGV [KRAS G12C affinity-enhanced peptide YLVVVGACGV]
HLA-A02:01 [1]
  Measured Affinity: 3.9 nM
HLA-A02:01 [2]
  Measured stability: 9.3 h

## YMVVVGACGV [KRAS G12C affinity-enhanced peptide YMVVVGACGV]
HLA-A02:01 [1]
  Measured Affinity: 7 nM
HLA-A02:01 [2]
  Measured stability: 6.4 h
